Reference: paper PMC5095173, “Disulfide-activated protein kinase G Iα regulates cardiac diastolic relaxation and fine-tunes the Frank–Starling response” (Nature Communications, 2016)

Experiments:
[1] = system: PKGIα (analogue-sensitive C42S/M438G), cGMP-activated; experiment: Chemical genetic phosphoproteomic screen, cGMP-activated PKGIα C42S/M438G versus unactivated control; format: biochemical, human PKGIα; substrates in rat heart homogenate; conditions: for log2 fold changes: Group 1 (cGMP-activated) vs Group 3 (control)
How it was run: (§1)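 Analogue-sensitive human PKGIα mutants (M438G, air-oxidized to disulfide dimer; C42S/M438G, cGMP-activated), expressed in 293-F cells, thiophosphorylate substrates in rat left-ventricle lysate (20 mg ml) using N6-alkylated ATPγS. Thiophosphopeptides are recovered by covalent capture and identified with sites by LC–MS/MS, each compared against an unactivated control.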

[2] = system: PKGIα (analogue-sensitive M438G), disulfide-activated; experiment: Chemical genetic phosphoproteomic screen, disulfide-activated PKGIα M438G versus unactivated control; format: biochemical, human PKGIα; substrates in rat heart homogenate; conditions: for log2 fold changes: Group 2 (disulfide-activated) vs Group 3 (control)
How it was run: as §1

[3] = system: PKGIα Cys42 interchain disulfide bond; experiment: Dihydrolipoic acid/lipoic acid redox titration of recombinant PKGIα, disulfide dimerization by SDS-PAGE; format: physicochemical; conditions: in vitro, unpublished data
Text: PhD thesis (2015) by Daniel Stubbert from this lab. We have amended the manuscript so that it now states that the PKGIα Cys42 disulfide bond is reversible and referenced the literature detailing the auranofin experiments described above:
“Reactive oxygen species (ROS) promote formation of a reversible intermolecular disulfide bond between the two subunits of the PKGIα homodimer at Cys424,5.”
Furthermore, in relation to reversibility, we also have unpublished data relating to the thermodynamic stability of the Cys42 interchain disulfide bond in vitro. We have performed a dihydrolipoic acid/lipoic acid redox titration with recombinant PKGIα and analysed the amount of disulfide dimerization by SDS-PAGE. The equilibrium redox potential was determined as approximately −280 mV; a value within the conﬁnes of the cellular redox potenƟal which ranges from ~−350 to –150 mV depending on e.g. the organelle an d stage of the cell cycle (Jones, D. P.
Journal of Internal Medicine 268, 432-448 (2010); Jones, D. P. American Journal of Physiology - Cell […]
consistent with our findings from tissue and cells, and arguably ex actly what would be expected of a protein that is required to rapidly transduce an oxidant signal into a biological response.
--What are the consequences of cys42 oxidation for cGMP activation of PKG? […]

B1: Wbp11 pS600 (protein, UniProt Q5PQQ2 1-641, looked up)
WW domain-binding protein 11: MGRRSTSSTKSGKFMNPTDQARKEARKRELKKNKKQRMMVRAAVLKMKDPKQIIRDMEKLDEMEFNPVQQPQLNEKVLKDKRKKLRETFERILRLYEKENPDIYKELRKLEVEYEQKRAQLSQYFDAVKNAQHVEVESIPLPDMPHAPSNILIQDIPLPGAQPPSILKKTSAYGPPTRAVSILPLLGHGVPRLPPGRKPPGPPPGPPPPQVLQMYGRKVGFALDLPPRRRDEDMLYSPELAQRGHDDDMSSTSEDDGYPEDMDQDKHDDSTEDSDTDRSDAESDGDEFGHRDDSERDNTEEKKSGLSVRFADMPGKSRKKKKNMKELTPLQAMMLRMAGQEIPEEGREVEEFSEEEDDDDSEDSEAEKPSQKQHKEDSHADGSSAASSQQQAPPQAVPPSQIQAPPMPGPPPLGPPPAPPLRPPGPPTGLPPGPPPGAPPFLRPPGMPGIRGPLPRLLPPGPPPGRPPGPPPGPPPGLPPGPPPRGPPPRLPPPAPPGIPPPRPGMMRPPLVPPLGPAPPGLFPPAPLPNPGVLSAPPSLIQRPKADDASAATIEKKATATISAKPQITNPKAEVTRFVPTALRVRRENKGATAVPQRRSEEDSAVPVAKAAPRSGPSVPVSVQTKDDVYEAFMKEMEGLL
modifications: phosphorylated at S600
[1]
  log2 fold changes: 4.049
[2]
  log2 fold changes: 2.503

B2: PKGIα: recombinant PKGIα; Cys42 interchain disulfide bond (protein)
chain: MSELEEDFAKILMLKEERIKELEKRLSEKEEEIQELKRKLHKCQSVLPVPSTHIGPRTTRAQGISAEPQTYRSFHDLRQAFRKFTKSERSKDLIKEAILDNDFMKNLELSQIQEIVDCMYPVEYGKDSCIIKEGDVGSLVYVMEDGKVEVTKEGVKLCTMGPGKVFGELAILYNCTRTATVKTLVNVKLWAIDRQCFQTIMMRTGLIKHTEYMEFLKSVPTFQSLPEEILSKLADVLEETHYENGEYIIRQGARGDTFFIISKGTVNVTREDSPSEDPVFLRTLGKGDWFGEKALQGEDVRTANVIAAEAVTCLVIDRDSFKHLIGGLDDVSNKAYEDAEAKAKYEAEAAFFANLKLSDFNIIDTLGVGGFGRVELVQLKSEESKTFAMKILKKRHIVDTRQQEHIRSEKQIMQGAHSDFIVRLYRTFKDSKYLYMLMEACLGGELWTILRDRGSFEDSTTRFYTACVVEAFAYLHSKGIIYRDLKPENLILDHRGYAKLVDFGFAKKIGFGKKTWTFCGTPEYVAPEIILNKGHDISADYWSLGILMYELLTGSPPFSGPDPMKTYNIILRGIDMIEFPKKIAKNAANLIKKLCRDNPSERLGNLKNGVKDIQKHKWFEGFNWEGLRKGTLTPPIIPSVASPTDTSNFDSFPEDNDEPPPDDNSGWDIDF
modifications: intermolecular disulfide bond at Cys42 between the two subunits
[3]
  equilibrium redox potential of the Cys42 interchain disulfide bond: approximately −280 mV

B3: Pfkfb2 pS486 (protein, UniProt Q9JJH5 2-557, looked up)
6-phosphofructo-2-kinase/fruct …: SENSTFSTEDSSSSSYKPHASNLRRAGKKCSWASYMTNSPTLIVMIGLPARGKTYVSKKLTRYLNWIGVPTKVFNLGVYRREAVKSYKSYDFFRHDNEEAMKIRKQCALVALEDVKAYFTEESGQIAVFDATNTTRERRDMILNFAKQNAFKVFFVESVCDDPDVIAANILEVKVSSPDYPERNRENVMEDFLKRIECYKVTYQPLDPDNYDKDLSFIKVMNVGQRFLVNRVQDYIQSKIVYYLMNIHVHPRTIYLCRHGESEFNLLGKIGGDSGLSLRGKQFAQALKKFLEEQEIQDLKVWTSQLKRTIQTAESLGVTYEQWKILNEIDAGVCEEMTYSEIEQRYPEEFALRDQEKYLYRYPGGESYQDLVQRLEPVIMELERQGNVLVISHQAVMRCLLAYFLDKGADELPYLRCPLHIIFKLTPVAYGCKVETITLNVEAVDTHRDKPTHNFPKSQTPVRMRRNSFTPLSSSNTIRRPRNYSVGSRPLKPLSPLRALDMQEGADQPKTQVQQGSAQATEHLQKALEFANGHREVENVLAKHRRPSMASLTLLS
modifications: phosphorylated at S486
[1]; control = PKGIα C42S/M438G
  log2 fold change cGMP vs Control: 0.2997
[2]; control = PKGIα C42S/M438G
  log2 fold change Disulfide vs Control: -0.4793

B4: Hdlbp pS74 (protein, UniProt Q9Z1A6 2-1268, looked up)
Vigilin: SSVAVLTQESFAEHRSGLVPQQIIVATLNSEEESDPPTYKDAFPPLPEKAACLESAQEPAGAWSNKIRPIKASVITQVFHVPLEERKYKDMNQFGEGEQAKICLEIMQRTGAHLELSLAKDQGLSIMVSGKLDAVMKARKDIVARLQTQASATVPIPKEHHRFVIGKNGEKLQDLELKTATKIQIPRPDDPSNQIKITGTKEGIEKARHEVLLISAEQDKRAVKRLEVEKAFHPFIAGPYNRLVGEIMQETGTRINIPPPSVNRTEIVFTGEKEQLAQAVARIKKIYEEKKKKTTTIAVEVKKSQHKYVIGPKGNSLQEILERTGVSVEIPPSDSISETVILRGEPEKLGQALTEVYAKANSFTVSSVSAPSWLHRFIIGKKGQNLAKITHQMPKVHIEFTEGEDKITLEGPTEDVNVAQEQIEGMVKDLINRMDYVEINIDHKFHRHLIGKSGANINRIKDQYKVSVRIPPDSEKSNLIRIEGDPQGVQQAKRELLELASRMENERTKDLIIEQRFHRTIIGQKGERIREIRDKFPEVIINFPDPAQKSEIVQLRGPKNEVEKCTKYMQKMVADLVENSYSISVPIFKQFHKNIIGKGGANIKKIREESNTKIDLPAENSNSETIVITGKRANCEAARSRILSIQKDLANIAEVEVSIPAKLHNSLIGTKGRLIRSIMEECGGVHIHFPVEGSGSDTVVIRGPSSDVEKAKKQLLHLAEEKQTKSFTVDIRAKPEYHKFLIGKGGGKIRKVRDSTGARIIFPAAEDKDQDLITIIGKEDAVREAQKELEALIQNLDNVVEDYMLVDPRHHRHFVIRRGQVLREIAEEYGGVMVSFPRSGTQSDKVTLKGAKDCVEAAKKRIQEIIEDLEAQVTLECAIPQKFHRSVMGPKGSRIQQITRDYNVQIKFPDREENPVHSVEPSIQENGDEAGEGREAKETDPGSPRRCDIIVISGRKEKCEAAKEALEALVPVTIEVEVPFDLHRYIIGQKGSGIRKMMDEFEVNIHVPAPELQSHTIAITGLAANLDRAKAGLLDRVKELQAEQEDRALRSFKLSVTVDPKYHPKIIGGKGAVITQIRLEHDVNIQFPDKDDGNQPQDQITITGYEKNTEAARDAILKIVGELEQMVSEDVPLDHRVHARIIGARGKAIRKIMDEFKVDIRFPQSGAPDPNCVTVTGLPENVEEAIDHILNLEEEYLADVVDSEALQVYMKPPAHEESKAPSKGFVVRDAPWTSNSSEKAPDMSSSEEIPTFGAQVAPKTLPWGPKR
modifications: phosphorylated at S74
[1]
  log2 fold changes: 3.955
[2]
  log2 fold changes: 0.4352
